These results are taken from the nanobody polyreactivity screen of Harvey et al. (2022).

The data set in a line: yeast display, Sf9 membrane polyspecificity reagent, FACS + sequencing; frameworks hold sequencing errors. In short, it runs like this: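 Nanobodies came from a synthetic yeast display library in Saccharomyces cerevisiae BJ5465, induced with galactose for 36–48 hours and stained for 1 hour at 4 °C with 10% biotinylated, detergent-solubilized Sf9 membrane reagent. Cells were enriched on streptavidin microbeads and then FACS-sorted, with low and high (top ~1%) gates set on anti-HA fluorescence for expression and streptavidin fluorescence for reagent binding. Each polyreactivity label reflects the gate a clone came from. Genes were amplified by colony PCR, sequenced by MiSeq 2 × 250 and filtered by CDR length.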
With “QVQHVESGGGLVQAGGSLRLSCAASGRTFRSYAMGWYRQAPGKEREFVATITRRGGSTYYADSVKGRFTISRDNAKNTVYLQMNSLKPEDTAVYYCNAVVSSQEYDYWGQGTQVTVSS”, the “polyreactivity (PSR sort gate)” value is listed as “high polyreactivity”.
For “QVQHVESGGGLVQAGGSLRLSCAASGRTFRYNAMGWSRQAPGKERELVAAISSGDRTNYADSVKGRFTISRDNAKYTVYLQMYSLKPEDTAVYYCAAQTDSYYDFDYWGQGTQVTVSS”, the “polyreactivity (PSR sort gate)” value is reported as “low polyreactivity”.
As for “QVQHVESGGGLVQAGGSLRLSCAASGRTFTRYTMGWYRQAPGKERELVAAIRFSGGSTYYADSVKGRFTISRDNAKNTVYLQMNSLKPEDTAVYYCAATGGWYKHWFDYWGQGTQVTVSS”, the “polyreactivity (PSR sort gate)” value was “low polyreactivity”.
To “QVQHVESGGGLVQAGGSLRLSCAASGRTFYRNAMGWYRPAPGKERELVAAISWSGGRTFYADSVKGRFTISRDNAKNTVYLQMNSLKPEDTAVYYCAKTYTTPGYYRYDYWGKGTQVTVSS” belongs “high polyreactivity”.
With “QVQHVESGGGLVQAGGSLRLSCAASGSIFGKYAMGWYRQAPGKERELVARISRSSGSTYYADSVKGRFTISRDNAKNTVYLQMNSLKPEDTAVYYCAARAYLNQARPKYGYSYDYWGQGTQVTVSS”, the “polyreactivity (PSR sort gate)” value is recorded as “high polyreactivity”.
Regarding “QVQHVESGGGLVQAGGSLRLSCAASGSIFGTYAIGWYRQAPGKERELVATISYGDGSTYYADSVKGRFTISRDNAKNTVYLEMNSLKPEDTAVYYCNTGVYSSGGPLDYWGQGTQVTVSS”, the “polyreactivity (PSR sort gate)” value was “low polyreactivity”.
Consider “QVQHVESGGGLVQAGGSLRLSCAASGSIFNRNAMGWYRQAPGKERELVAAITRRGGSTYYADSVKVRFTISRDNAMNTVYLQMNSLKPEDTAVYYCAAATRKTEYDYWGQGSQVTVSS”, for which the “polyreactivity (PSR sort gate)” value is listed as “high polyreactivity”.
Consider “QVQHVESGGGLVQAGGSLRLSCAASGSIFPLNAMGWSRQAPGQVSELVASISTGSSTYYADSVKGRFTISRDNAKNTVYLQMISLKPEDTAVYFCAVDRVLFSDFNRGYEYNYWGQGTQVTVSS”, for which the “polyreactivity (PSR sort gate)” value is recorded as “low polyreactivity”.
Regarding “QVQHVESGGGLVQAGGSLRLSCAASGSIFPVYAMRWYRQAPGKEREFVASIRWRGGSTSYADSVKGRFTISRDNAKNTVYLQMNSLKPEDTAVYYCNAVYYSWAQSARFDYWGQGTQVTVSS”, the “polyreactivity (PSR sort gate)” value was “low polyreactivity”.
Regarding “QVQHVESGGGLVQAGGSLRLSCAASGSIFSYYAMGWYRQPPGKERELVATISSGDSTYYADSVKGRFTISRDNAKKTVYLQMNSLKPEDTAVYYCARKPRIRYYPAPYDYWGQGTQVTVSS”, the “polyreactivity (PSR sort gate)” value is listed as “low polyreactivity”.
As for “QVQHVESGGGLVQAGGSLRLSCAASGSIIPSNVMGWYRQATGKEREFVAGITFRVGSTYYADSVKGRFTISLDNAKNTVYLQMNSLKPEDTAVYYCAALIRAVDRYTYRYGYWGQGTQVTVSS”, the entry is “high polyreactivity”.
To “QVQHVESGGGLVQAGGSLRLSCAASGSTFGPNAMGWYRQAPGKERELVAAINTRGGSTYYADSVKGRFTISRDNAKNTVYLQMNSLKPEDTAVYYCAAEYVVWYLDRFNYWGQGTQVTVSS” belongs “high polyreactivity”; to “QVQHVESGGGLVQAGGSLRLSCAASGSTFHDYAMAWYRQATGKEREFVAAIRWRGGSTYYADSVKGRFTISRDNAKNTVYLQMNSLKPEDTAVYYCAADYLQFRKYVVHFDYLGQGTQVTVSS”, “low polyreactivity”.
Take “QVQHVESGGGLVQAGGSLRLSCAASGSTFWNKAMGWYRQAPGKEREFVAAITRSTTSTYYADSVKGRFTISRDNAKNTVYLQMNSLKPEDTAVYFCAADTDIVLYDYWGQGTQVTVSS”: the “polyreactivity (PSR sort gate)” value is listed as “low polyreactivity”.
For the sequence “QVQHVESGGGLVQAGGSLRLSCAASGSTFYGNAMGWYRQAPGKEREFVASINSRGGITYYADSVKGRFTISRDNAKNTVYLQMNSLKPEDTAVYYCNTRVLSFYHYPYDYWGQGTQVTVSS”, the “polyreactivity (PSR sort gate)” value was “high polyreactivity”.
In the case of “QVQHVESGGGLVQAGGSLRLSCAASGSTFYINAKGWYRQAPGKEREFVASISWRGGSTYADSVKGRFTISRDNAKNTVYLQMNSLKPEDTAVYFCAAEFDVYSHHWITSYDYWGQGTQVTVSS”, the “polyreactivity (PSR sort gate)” value is “high polyreactivity”.
To “QVQHVESGGGLVQAGGSLRLSCAASGSTIYHYAMGWSRPAHGKERELVAAITTIGGRTYYADSVKGRFTISRDNAKNTVYLQMNSLKPEDTAVYYCAAGYRAWEPYGHYGYWGQGTQVTVSS” belongs “high polyreactivity”; to “QVQHVESGGGLVQAGGSLRLSCAASGSTYNGYAMGWYRQATGKERELVAAISTSGGSTYYADSVKGRFTISRDNAKNTVYLQMNSLKPEDTAVYYCATYYGKRYMRRVDYWGQGTQVTVSS”, “high polyreactivity”.
Regarding “QVQHVESGGGLVQAGGSLRLSCAASGYNFPYNPMGWYRQATGKEREFVAASTSSGGSTYYADSVKGRFTISRDNAKNTVYLQMNSLKPEDTAVYYCARVPLHRYGYWGQGTQVNVSS”, the “polyreactivity (PSR sort gate)” value is on record as “high polyreactivity”.
To “QVQHVESGGGLVQAGGSLRLSCAASRLTFTRNAMGWYRQAPGKERELVAAITRSSGSTYYADSVKGRFTISRDNAKNTVYLQMNSLKPEDTAVYYCNARRAAYYHRARELDYWGQGTQVTVSS” belongs “high polyreactivity”; to “QVQHVESGGGLVQAGGSLRLSCAATGRIFTAYYAMGWYRQAPGKERELVASISSSGTSTYADSVKGRFTISRDNAKNTVYLQMNSLKPDDTAVYYCATRKLRTRRYDYGYWGQGTQVTVSS”, “low polyreactivity”; to “QVQHVESGGGLVQAGGSLRLSCAPSGITFYTYTMGWYRQAHGKERQLVAVISASGARTYYADSVKGRFTISRDNAKNTVYLQMNSLKPEDTAVYYCAARSYFISPWRFDYWGQGTQVTVSS”, “high polyreactivity”.
As for “QVQHVESGGGLVQAGGSLRLSCDASGSTFPYYTMGWYRQAPGKERELVAAITWRGGRTYYADSVKGRFTISRDNAKNTVYLQMNSLKPEDTAVYYCATGYSYRGYSALSGYDYWGQGTQVTVSS”, the entry is “high polyreactivity”; as for “QVQHVESGGGLVQAGGSLRLSCPASGIIFDYYAMGWYRQAPGKERELVATITSGGSTNYADSVKGRFTISRDNAKNTVYLQMNSLKPEDTAVYYCAARTYWFPDIYPGLGMDYWGQGTQVTVSS”, “low polyreactivity”; as for “QVQHVESGGGLVQAGGSLRLSSAASGFTFYGYAMGWYRPARGNERELVATIRRSTGSTYYADSVKGRFTISRDNAKYSVYLQMNSLKPDDTAVYYCATRVWFPITSYDYWGQGTQVTVSS”, “low polyreactivity”.
Turning to “QVQHVESGGGLVQAGGSLRLSSAASGRIFPINAMGWYRQAPGKERELVAAISYSGGSTYYADSVKGRFTISRDNAKNTVYLQMNSLKPEDTAVFYCNARYPYSYYHRYYYWGQGTQVTVSS”, the “polyreactivity (PSR sort gate)” value is “high polyreactivity”.
For “QVQHVESGGGLVQAGGSNRLSCASSGSTFPGNAMGWYRQAPGKERELVARINDGADTNYADSVKGRFTISRDNAKNTVFLQMNSLKPEDTAVYYCAKPFYDGRTHFVSWGQGTQVTVSS”, the “polyreactivity (PSR sort gate)” value is listed as “low polyreactivity”.
Take “QVQHVESGGGLVQAGGSRRLSCAASGRTFREYAMGWYRQAPGKERELVAAISDSGDSTYYADSVKGRFTISRDNAKNTVNLQMNSLKPVHTAVYYCAADYYDYEYDYWGQGTQVTVSS”: the “polyreactivity (PSR sort gate)” value was “low polyreactivity”.
Regarding “QVQHVESGGGLVQAGGTLRLSCASSGRTLYYYTMGWYRQAPGKESELVAAISKSGGSTYYADSVKGRFTISRDNAKNTVYLQMNSLKPEDTAVFYCAADRSAYSRGYVRYIYWGQGTKVTVSS”, the “polyreactivity (PSR sort gate)” value was “high polyreactivity”.
As to “QVQHVESGGGLVQAGRSLRLSCAASGFIFRYSAMGWYRPAPGKERELVATITGRGGSTYYADSVKGRFTISRDNAKNTVYLQMNSLIPEDTAVYYCAARARYSPAPYDYWGQGTQVTVSS”, the “polyreactivity (PSR sort gate)” value is “high polyreactivity”.
To “QVQHVESGGGLVQARGSLRLSCAASGLTFNTYAMGWYRQAPGQDRELVAAISRRGSRTYYADSVKGRFTISRDNAKNTVYLQMNSLNREDTAVYYCAAPRASGYYWGQGTQVTVSS” belongs “high polyreactivity”.
As for “QVQHVESGGGLVQAVVSLRLSCAATGRIISYNAMGWYRQAPGKEWELVAAISWVGGSTYYADSVKGRFTISRDIAKNTVYLQMNCLKPEDTAVYYCAKGWYRIKRNDYWGQGTQVTVSS”, the entry is “low polyreactivity”; as for “QVQHVESGGGLVQPGGSHRLSCAASGSTFQIYAMRWYRQAPGKVRELVAAITSSSSTNYADSVKGRFTISRDNAKNTDYLQMNSLKPEDPAVYYCAADVSRRCNWYDYWGQGTQVTVSS”, “low polyreactivity”.
To “QVQHVESGGRLVQAGGSLRLSCAASGFIFPNYAMGWYRQAPGKERELVAVISRSGGSTYYADSVKGRFTISRDNAKNTVYLQMNSLKPEDTAVYYCNAVARGYGYDYWGQGTQVTVSS” belongs “high polyreactivity”; to “QVQHVESGGRLVQAGGSLRLSCAPSGFIFSKYAMGWYRQAPGKERELVAAITRSGGRTYYADSVKGRFTISRDNAKNTVYLQMNSLKPEDTAVYYCAASWLYFGRDYWGQGTQVTVSS”, “high polyreactivity”.
For “QVQHVESGGRLVQAGGSLRLSWAASGRIFRVNAMGRYRQAPGKERELVAAINFSGTSTYFADSVKGRFTISRDNAKNTVYLQMNSLKPDDTAVYYCNALTTSNSGRFYYWGQGTQVTVSS”, the “polyreactivity (PSR sort gate)” value is listed as “low polyreactivity”.
As for “QVQHVESGGVLVQAGGSLRLSCAASGSIFYPNAMGWYRQAPGKERELVAAISSSGGTNYADSVKGRFTISRDNAKNTVYLQMNSLKPEDTAVYYCNARDKVRYRFSRMDYWGQGTQVTVSS”, the entry is “low polyreactivity”; as for “QVQHVESGRGLVQAGGSLRLSCAASGIIFLYYAMGWYREAPGKVRELVAAITGSGGTTYYADSVKGRFTISRDNAMNTVYLQMNSLKPEDTAVYYCATPPPEVWQRWYREYDYWGQGTQVTVSS”, “low polyreactivity”; as for “QVQHVESGRGLVQAGGSLRLSCPASGSTFSYYAMGWYRQAPGKERELVASISSTTGSTYYADSVKGRFTISRDNAKNTVYVKMNSVKPEDTAVYYCAADIPPGGGDYWGQGSQVTVSS”, “low polyreactivity”.
Turning to “QVQHVESGRGLVQAGRSLRLSCAASGRIFQRYAMGWYRQAPGKERELVAVITKRGGNTYYADSVKGRFTISRDNAKNTVYLQMNSLKPEDTAVYYCASRSGRSTGDYWGQGTQVTVSS”, the “polyreactivity (PSR sort gate)” value is on record as “high polyreactivity”.
As for “QVQHVESGVGLVQAGGSLRLSCAASGSIFVHNAMGWYRQAPGKERELVAGISARAASTYYADSVKGRFTISRDNAKNTVYLQMNSLKPEDTAVYYCAADRIPGYRVYGFYYWGQGTQVTVSS”, the entry is “low polyreactivity”.
